We go through 4 molecules from patent US10246495B2, “Variants of Gal2 transporter and their uses” (BUTALCO GMBH, priority 2014, dated 2019).

Numbering of substitutions follows the chain as printed. Names may count otherwise. “Also recorded” adds a separate entry of the source.

One experiment addresses Gal2 (Saccharomyces cerevisiae, UniProt P13181). The conditions noted are these: galactose transport by Gal2; cited from earlier work.
The subject of another experiment is EBY.VW4000. As to the kind of experiment: Serial dilution growth drop test of Gal2 variants in EBY.VW4000 on hexoses. The conditions noted are these: FIG. 3, four days at 30°; for growth on glucose: Gal2 of CEN.PK constructs. Format: cell-based, Saccharomyces cerevisiae. How it is done:
The transformants were cultivated in 5 ml SCM-ura with 20 g/l maltose at 300, washed with water and adjusted to an OD600 of 1. Thereof it followed a serial dilution. 5 μl were dropped onto the respective media and it was incubated for […] at 30°. As a control for the dilution SCM-ura with 20 g/l maltose was taken. The cells of the mutated transporters were dropped onto SCD-ura with 0.2% and 2% glucose, as well as SCG-ura with 0.2% and 2% D-galactose to test their functionality. Furthermore the wild type of CEN.PK2 and Ethanol Red, as well as Gal2_ep3.1 were used for comparison. The galactose transporter with the mutation T354A is from HDY.GUF10.
FIG. 3: Drop test of Gal2_T354A in combination with V71I and L280R in EBY.VW4000 after four days at 30°. Several dilutions were dropped from left to right (undiluted, 1:10, 1:100, 1:1000).
(§1) For easy comparison of growth of different S. cerevisiae strains under various growth conditions a serial dilution spot assay was performed. Cells were grown in liquid culture to exponential phase in appropriate medium, collected by centrifugation (2000×g, 2 min), washed twice with sterile water and then resuspended to an OD600 of 1.0 in selective medium without carbon source. From this cell suspension a ten-fold serial dilution was prepared in selective medium (four dilution steps). 6 μl of each cell suspension were spotted on plates of the media to be examined and allowed to dry. Plates were incubated at 30° C.
First a growth test was performed with the vectors in VW4000 on glucose and maltose media. The galactose transporter of the wild type CEN.PK2, as well as Gal2_ep3.1 were used as controls and as a comparison.
The following variants of Gal2 were constructed in expression vectors: T354A, T354A+V71I, T354A+L280R, L280R and […]. They were transformed into competent EBY.VW4000 cells. Then drop tests were performed on different carbon sources.

A further experiment has as its system AFY10. Nature of the experiment: Serial dilution growth drop test of Gal2 variants in AFY10 on xylose and xylose-glucose mixtures. The conditions noted are these: FIG. 4; 2 g/l xylose, six days at 30°. Format: cell-based, Saccharomyces cerevisiae. On the procedure: The transformants were cultivated in 5 ml SCE-ura-leu with 2% ethanol at 300, washed with water and adjusted to an OD600 of 1. Thereof it followed a serial dilution. 5 μl were dropped onto the respective media and it was incubated for […] at 30°. As a control for the dilution SCE-ura-leu with 2% ethanol was taken. The cells of the mutated transporters were dropped onto SCX-ura-leu with 0.2% and 2% D-xylose, as well as SC-ura-leu with 1% D-xylose with 4% D-glucose and SC-ura-leu with 0.2% D-xylose and 2% D-glucose to test their functionality. Furthermore the wild type of CEN.PK2 and Ethanol Red, as well as Gal2_ep3.1 were used for comparison. The galactose transporter with the mutation T354A is from HDY.GUF10.
FIG. 4: Drop test of Gal2_T354A in combination with V71I and L280R in AFY10 after six days at 30°. Several dilutions were dropped from left to right (undiluted, 1:10, 1:100, 1:1000).
as §1
Furthermore this was also done with AFY10 in order to investigate the xylose specificity and the glucose affinity of the transformants.
The various constructs were transformed into AFY10 cells together with vector YEp181_pHXT7-optXI_Clos, and serial dilution growth drop tests were performed.

Sequence of Gal2 (P13181 whole entry): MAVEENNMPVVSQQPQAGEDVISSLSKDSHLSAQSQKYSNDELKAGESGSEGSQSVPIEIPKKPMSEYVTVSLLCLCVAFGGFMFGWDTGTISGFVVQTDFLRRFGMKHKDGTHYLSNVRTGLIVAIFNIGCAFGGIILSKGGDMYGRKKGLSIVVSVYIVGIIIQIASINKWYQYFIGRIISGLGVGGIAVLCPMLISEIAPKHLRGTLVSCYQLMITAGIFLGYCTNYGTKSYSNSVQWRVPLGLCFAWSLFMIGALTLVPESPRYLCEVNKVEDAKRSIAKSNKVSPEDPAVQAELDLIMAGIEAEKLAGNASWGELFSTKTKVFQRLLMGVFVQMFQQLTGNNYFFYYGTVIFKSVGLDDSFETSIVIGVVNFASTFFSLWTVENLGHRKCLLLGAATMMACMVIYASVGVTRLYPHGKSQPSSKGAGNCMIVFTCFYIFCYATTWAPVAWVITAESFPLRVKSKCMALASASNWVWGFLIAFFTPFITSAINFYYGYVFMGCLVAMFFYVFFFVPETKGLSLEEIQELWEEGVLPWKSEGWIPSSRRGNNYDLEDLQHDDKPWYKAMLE

A word on the Km: it is the concentration of substrate that gives half-maximal velocity. As to `O=C[C@H](O)[C@@H](O)[C@@H](O)[C@H](O)CO` [galactose], at Gal2, the Km is 1000 to 5000 µM.

B1: V71I: Gal2 of CEN.PK with amino acid exchange V71I alone (protein, UniProt P13181 1-574, looked up, variant V71I)
Galactose transporter: MAVEENNMPVVSQQPQAGEDVISSLSKDSHLSAQSQKYSNDELKAGESGSEGSQSVPIEIPKKPMSEYVTISLLCLCVAFGGFMFGWDTGTISGFVVQTDFLRRFGMKHKDGTHYLSNVRTGLIVAIFNIGCAFGGIILSKGGDMYGRKKGLSIVVSVYIVGIIIQIASINKWYQYFIGRIISGLGVGGIAVLCPMLISEIAPKHLRGTLVSCYQLMITAGIFLGYCTNYGTKSYSNSVQWRVPLGLCFAWSLFMIGALTLVPESPRYLCEVNKVEDAKRSIAKSNKVSPEDPAVQAELDLIMAGIEAEKLAGNASWGELFSTKTKVFQRLLMGVFVQMFQQLTGNNYFFYYGTVIFKSVGLDDSFETSIVIGVVNFASTFFSLWTVENLGHRKCLLLGAATMMACMVIYASVGVTRLYPHGKSQPSSKGAGNCMIVFTCFYIFCYATTWAPVAWVITAESFPLRVKSKCMALASASNWVWGFLIAFFTPFITSAINFYYGYVFMGCLVAMFFYVFFFVPETKGLSLEEIQELWEEGVLPWKSEGWIPSSRRGNNYDLEDLQHDDKPWYKAMLE
For B1, the “effect on uptake of glucose or galactose” value in the experiment with EBY.VW4000 is “no effect”. In the experiment with AFY10, the “growth on low xylose concentrations” value is given as “very slow growth; also recorded: poor growth”.

B2: T354A: Gal2 of CEN.PK with amino acid exchange T354A alone (protein, listed as Saccharomyces cerevisiae)
chain: B1 Galactose transporter with S50P, I71V, R280L, T354A, H392R
As to B2, in the experiment on EBY.VW4000, the growth on glucose result is on record as “strongly impairs growth”. Further, in the experiment with AFY10, the “growth on low xylose concentrations” value is on record as “poor growth”.

B3: V71I and T354A: Gal2 of CEN.PK with amino acid exchanges T354A and V71I (protein, UniProt P13181 1-574, looked up, variant V71I T354A)
Galactose transporter: B1 Galactose transporter with T354A
For B3, the growth on glucose result with EBY.VW4000 is “does not mediate growth”. The “growth on low xylose concentrations” value in the experiment with AFY10 is “growth like the Gal2 wild type”.
